± gives the uncertainty stated by the source.
B1: Chromodomain-helicase-DNA-binding protein 4, residues 623 to 675; numbered along this chain, Q14839 (parent)
chain: MIHRILNHSVDKKGHVHYLIKWRDLPYDQASWESEDVEIQDYDLFKQSYWNHR

Variants of: B1
Experiment: abundance fitness (aPCA) (normalised: wild type 0, dead -1); higher = more abundant; growth selection in yeast, the domain comes from the species named
Conditions: Homo sapiens

In order of falling abundance fitness:
1. M1N  0.277 ± 0.17
2. M1Y  0.226 ± 0.16
3. M1I  0.148 ± 0.092
4. V10Y  0.115 ± 0.12
5. M1K  0.112 ± 0.15
6. N7D  0.013 ± 0.11
7. K12H  0.01 ± 0.14
8. K12M  0 ± 0.13
9. M1F  -0.004 ± 0.19
10. K12A  -0.01 ± 0.1
11. M1V  -0.015 ± 0.17
12. M1G  -0.046 ± 0.25
13. N7A  -0.068 ± 0.097
14. N7K  -0.07 ± 0.14
15. K12N  -0.073 ± 0.12
16. K12S  -0.074 ± 0.092
17. K12G  -0.078 ± 0.091
18. K12P  -0.083 ± 0.14
19. K12Q  -0.084 ± 0.25
20. V10T  -0.093 ± 0.1
21. K13S  -0.098 ± 0.073
22. N7Q  -0.101 ± 0.13
23. K12D  -0.103 ± 0.15
24. N7S  -0.112 ± 0.071
25. M1T  -0.117 ± 0.12
26. K12I  -0.136 ± 0.11
27. V10K  -0.144 ± 0.12
28. K12E  -0.158 ± 0.2
29. N7T  -0.162 ± 0.077
30. K12V  -0.171 ± 0.1
31. K12Y  -0.184 ± 0.13
32. K12W  -0.19 ± 0.15
33. K13R  -0.196 ± 0.084
34. V10F  -0.207 ± 0.11
35. M1S  -0.23 ± 0.16
36. K12L  -0.239 ± 0.099
37. K12R  -0.246 ± 0.12
38. M1C  -0.25 ± 0.24
39. N7H  -0.26 ± 0.085
40. V10R  -0.262 ± 0.085
41. K13V  -0.263 ± 0.088
42. N7R  -0.263 ± 0.089
43. M1R  -0.265 ± 0.22
44. V10I  -0.286 ± 0.097
45. N7E  -0.317 ± 0.17
46. M1L  -0.324 ± 0.14
47. V10L  -0.332 ± 0.08
48. K13G  -0.335 ± 0.089
49. K13T  -0.344 ± 0.088
50. N7G  -0.356 ± 0.12
51. V10Q  -0.377 ± 0.14
52. N7L  -0.438 ± 0.076
53. V10E  -0.447 ± 0.12
54. N7Y  -0.449 ± 0.09
55. N7C  -0.45 ± 0.11
56. M1D  -0.452 ± 0.3
57. M1H  -0.462 ± 0.31
58. V10S  -0.47 ± 0.089
59. V10M  -0.495 ± 0.1
60. K12F  -0.514 ± 0.13
61. N7M  -0.529 ± 0.12
62. V10W  -0.533 ± 0.13
63. I2E  -0.54 ± 0.3
64. V10H  -0.557 ± 0.14
65. V10C  -0.562 ± 0.12
66. N7F  -0.568 ± 0.089
67. V10P  -0.571 ± 0.12
68. N7W  -0.586 ± 0.19
69. K13I  -0.588 ± 0.1
70. I2V  -0.589 ± 0.1
71. I2C  -0.662 ± 0.11
72. I2H  -0.673 ± 0.11
73. V10D  -0.682 ± 0.15
74. M1Q  -0.689 ± 0.48
75. V10N  -0.714 ± 0.14
76. N7V  -0.724 ± 0.11
77. I2R  -0.734 ± 0.11
78. I2M  -0.761 ± 0.13
79. I2G  -0.802 ± 0.12
80. I2Y  -0.882 ± 0.16
81. N7P  -0.884 ± 0.098
82. V10G  -0.895 ± 0.11
83. I2A  -0.978 ± 0.15

Reference: the Human Domainome abundance scans (Beltran et al. 2025)
